# Reference: US20240343799A1 (Innovent, published 2024)
# Residue numbers refer to the chain shown, from its start.
# B1: polmab (antibody, human IgG1, kappa, V domains shown)
# VH: EVQLVESGGGLVQPGGSLRLSCAASGYTFSSYWIEWVRQAPGKGLEWIGEILPGGGDTNYNEIFKGRATFSADTSKNTAYLQMNSLRAEDTAVYYCTRRVPIRLDYWGQGTLVTVSS
# VL: DIQLTQSPSSLSASVGDRVTITCKASQSVDYEGDSFLNWYQQKPGKAPKLLIYAASNLESGVPSRFSGSGSGTDFTLTISSLQPEDFATYYCQQSNEDPLTFGQGTKVEIKR
# B2: hz38D9B3.11 (antibody, V domains shown)
# VH: QVQLVQSGSELKKPGASVKVSCKASGYTFTDYSMHWVRQAPGQGLEWMGWINTETGEPSYADDFKGRFVFSLDTSVSTAYLQISSLKAEDTAVYYCYYGPYWGQGTLVTVSS
# VL: EIVLTQSPATLSLSPGERATLSCKASQSVDHDVDSYMDWYQQKPGQAPRLLIYSASNLESGIPARFSGSGSGTDFTLTISSLEPEDFAVYYCQQINEYPYTFGGGTKVEIK
# notes: Humanized monospecific anti-CD79b antibody
# B3: hz34F1.14 (antibody, V domains shown)
# VH: QVQLVQSGAEVKKPGASVKVSCKASGYSFTTYWMNWVRQAPGQGLTWMGMIDPSDSETHYNHLFKDRVTMTVDKSTSTAYMELSSLRSEDTAVYYCTRAIGYWGQGTLVTVSS
# VL: DVVMTQSPLSLPVTLGQPASISCKSSLSLLDSEGKTYLNWFQQRPGQSPRPLISLVSKLDSGVPDRFSGSGSGTDFTLKISRVEAEDVGVYYCWQGTHFPLTFGGGTKVEIK
# B4: hz11G10.9.p1 (antibody, V domains shown)
# VH: QVQLVQSGAEVKKPGASVKVSCKASGYTFTDYWVNWVRQAPGQGLEWMGMIDPSDSETHYNQMFNDRVTMTVDTSTSTVYMELSSLRSEDTAVYYCTRSNYYWGQGTLVTVSS
# VL: DIVMTQTPLSLSVTPGQPASISCKSSQSLLDSEGKTYLNWLLQKPGQSPQSLIYLVSKLDSGVPDRFSGSGSGTDFTLKISRVEAEDVGVYYCWQGTHFPLTFGGGTKVEIK
# notes: Humanized monospecific anti-CD79b antibody; also called 11G10.9.01
# B5: A7v14b (antibody, V domains shown)
# VH: EVQLVQSGAEVKKPGASVKVSCKASGYTFTTYYMNWVRQAPGQGLEWIGMIDPSDSETHYNQKFQGRATLTVDTSTSTAYLELSSLRSEDTAVYYCSRSLAFWGQGTLVTVSS
# VL: B4 VL with S12P, E33D, L101Q, G105Q
# notes: also called CD79b.A7v14b
# Molecular target: T1, human CD79b (recombinant antigen in the ForteBio assays) (human, UniProt P40259 29-159)
# T1 construct: the immunogen was CD79b protein from Sino, Cat #29750-H08H; also called huCD79b
# T1 sequence (looked up): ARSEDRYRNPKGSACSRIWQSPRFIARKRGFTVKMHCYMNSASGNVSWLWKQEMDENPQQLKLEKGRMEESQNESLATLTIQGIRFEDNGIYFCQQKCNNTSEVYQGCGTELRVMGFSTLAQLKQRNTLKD
# Experiment: BLI (ForteBio)
row,Binder,Kd [nM]
1,B1,13.7

# Molecular target: T2, CD79b on the surface of B-cell non-Hodgkin's lymphoma cells (human, UniProt P40259 29-229)
# T2 construct: whole, on cells; Endogenous CD79b of the cell lines; on cells it stands in the B cell receptor complex with CD79a; also called CD79b on Ramos cells; CD79b on BJAB cells
# T2 sequence (looked up): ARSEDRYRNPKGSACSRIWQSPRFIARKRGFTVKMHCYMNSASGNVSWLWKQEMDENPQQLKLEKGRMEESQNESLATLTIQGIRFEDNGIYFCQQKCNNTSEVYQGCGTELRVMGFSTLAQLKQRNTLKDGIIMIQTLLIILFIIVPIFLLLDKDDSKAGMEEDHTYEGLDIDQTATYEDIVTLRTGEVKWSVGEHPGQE
# Experiment: flow cytometry on BJAB cells, goat anti-human IgG PE
# Protocol: (§1) Ramos (ATCC, Cat #CRL-1596) and BJAB (AddexBio, USA, Cat #C0003016) were passaged according to the conventional procedures. Cells were counted after centrifugation and resuspension, adjusted to a density of 4×10⁶ cells/mL, poured into a loading tank, and seeded to a 96-well plate at 50 μL/well using a multichannel pipettor. 50 μL of the antibody sample diluted in gradient was added to the 50 μL of cells in each well, and the mixture was then incubated in an incubator at 5% CO₂ and 37° C. for 30 min. The mixture was centrifuged at 400 g for 5 min, then 200 μL of PBS was added, and the resulting mixture was centrifuged at 400 g for 5 min. This procedure was repeated 3 times. Goat anti-human IgG PE (1:200) was added, and the mixture was incubated for 30 min in the dark at room temperature. The mixture was washed with 200 μL of PBS twice, centrifuged, and then resuspended in 100 μL of PBS, and the values were read using a flow cytometer. The values were fitted to obtain a curve and EC₅₀ values were calculated.
# (§2) The binding of the humanized antibodies to Ramos and BJAB cells was detected by flow cytometry. The assay was the same as in Example 4. The binding of the humanized antibodies to CD79b on the surface of Ramos cells is shown in FIG. 3; the binding of the humanized antibodies to CD79b on the surface of BJAB cells is shown in FIG. 4.
row,Binder,EC50 (read off the curve) [nM]
1,B2,~2
2,B1,~2
3,B3,~10
4,B4,~4
5,B5,~3

# Molecular target: T2, CD79b on the surface of B-cell …
# Experiment: flow cytometry on Ramos cells, goat anti-human IgG PE
# Protocol: as §1, §2
row,Binder,EC50 (read off the curve) [nM]
1,B2,~2
2,B1,~3
3,B3,~20
4,B4,~5
5,B5,~4

# Molecular target: T1, human CD79b (recombinant antigen in the …)
# Experiment: BLI (ForteBio), antibody loaded on sensor, antigen in solution
# Protocol: The equilibrium dissociation constants (KD) for binding of the antibodies of the present invention to CD79b were determined by bio-layer interferometry (ForteBio). A ForteBio affinity assay of prior art was performed (Estep, P., et al., “High throughput solution Based measurement of antibody-antigen affinity and epitope binning”, MAbs, 2013.5 (2): 270-8).
# (§3) Briefly, an AMQ (Pall, 1506091) sensor was equilibrated offline in an assay buffer for 30 min and then equilibrated online for 60 s to establish a baseline. The purified antibodies obtained as described above were each loaded online onto an AHQ sensor (ForteBio) for the ForteBio affinity assay. The sensor with the loaded antibody was then exposed to antigen CD79b before transferring the sensor to the assay buffer to measure the dissociation rate. The KD values were analyzed using ForteBio analysis software.
row,Binder,Kd [nM]
1,B1,12.7
2,B5,1.84

# Molecular target: T1, human CD79b (recombinant antigen in the …)
# Experiment: as above
# Remark: another data set of the same source
# Protocol: as §3
# The equilibrium dissociation constants (KD) for the binding of the humanized antibodies of the present invention to human CD79b were determined by ForteBio.
row,Binder,Kd [nM]
1,B2,0.274
2,B1,12.7
3,B3,2.53
4,B4,1.35
5,B5,1.84
